# US20090170069A1 (ARIZONA BOARD OF REGENTS ON BEHALF OF THE UNIVERSITY OF …, published 2009)
# T1: Vascular Endothelial Growth Factor (VEGF), His-tagged, refolded dimer (UniProt P15692-4 37-135)
# T1 sequence (looked up): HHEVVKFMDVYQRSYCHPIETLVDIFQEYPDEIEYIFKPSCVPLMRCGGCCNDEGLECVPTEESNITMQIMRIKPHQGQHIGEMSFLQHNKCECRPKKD
# B1: Flt-1 domain 2 fused to the N-terminal half of firefly luciferase (residues 2-416) (receptor, UniProt P17948 129-229, looked up, not shown: small tags and cut ends)
# chain: SDTGRPFVEMYSEIPEIIHMTEGRELVIPCRVTSPNITVTLKKFPLDTLIPDGKRIIWDSRKGFIISNATYKEIGLLTCEATVNGHLYKTNYLTHRQTNTIEDAKNIKKGPAPFYPLEDGTAGEQLHKAMKRYALVPGTIAFTDAHIEVNITYAEYFEMSVRLAEAMKRYGLNTNHRIVVCSENSLQFFMPVLGALFIGVAVAPANDIYNERELLNSMNISQPTVVFVSKKGLQKILNVQKKLPIIQKIIIMDSKTDYQGFQSMYTFVTSHLPPGFNEYDFVPESFDRDKTIALIMNSSGSTGLPKGVALPHRTACVRFSHARDPIFGNQIIPDTAILSVVPFHHGFGMFTTLGYLICGFRVVLMYRFEEELFLRSLQDYKIQSALLVPTLFSFFAKSTLIDKYDLSNLHEIASGGAPLSKEVGEAVAKRFHLPGIRQGYGLTETTSAILITPEGDDKPGAVGKVVPFFEAKVVDLDTGKTLGVNQRGELCVRGPMIMSGYVNNPEATNALIDKDG
# Target: T1, Vascular Endothelial Growth Factor …
binder,measurement,value
B1,fold increase in luminescence,15 fold
